PMC5095702 (Biochemistry, 2016)

Molecular target: the molecule itself
Experiment: SEC

B1: KdnB from Shewanella oneidensis (enzyme, S. oneidensis, UniProt Q8EEB0 1-356, looked up)
chain: MSFKNFKVVEKMIFGRGSFVQLDDVLAAQRKADDDFVVFLVDDVHQGKPLEARIPVKAQDLLIWVNVDEEPSTIQIDALTEQVQAFNGKLPVSVVGLGGGSTMDVAKAVSLMLTNPGGSAMYQGWDLIKKPAVHHIGIPTISGTGAEASRTAVLCGPVRKLGLNSDYTVFDQIIMDSELIDGVETDQWFYTGMDCYIHCVESLEGTFLNEFSKAYAEKAMDLCRQVYLEDHPEKDDKLMMASFMGGMSIAYSQVGACHAVSYGLSYILGYHHGIGNCIAFDVLEEFYPEGVAEFRLMMKKHNITLPKNICKDLPDETIAKMVAVTKSMGPLWANVYGPTWEEKVTDEMLTALFRRI
stoichiometry N: 2
